From PMC2668763 come the findings set out here.

Where two headings read alike, the source gives them in different places.

In the case of “hCdc14A: Cdc14A phosphorylation mutants (S351,363A and S351,363D)”, the localisation_or_trafficking result (phosphorylation at S351) is “no change” and the localisation_or_trafficking entry (phosphorylation at S363) was “no change”.
